The values that follow come from the Human Domainome abundance scans (Beltran et al. 2025).

± gives the uncertainty stated by the source.

First the molecules themselves.
B1: Calcium-binding protein 2, residues 155 to 219; numbered along this chain, Q9NPB3 (parent)
chain: RELRDAFREFDTNGDGRISVGELRAALKALLGERLSQREVDEILQDVDLNGDGLVDFEEFVRMMS

This data set covers variants of B1. In words: abundance fitness (aPCA) (normalised: wild type 0, dead -1); higher = more abundant; growth selection in yeast, the domain comes from the species named. As to conditions: Homo sapiens.
On to RELRDAFREFDTNGDGRISVGELRAALKALLGERLSQREVDEILQDVDLVGDGLVDFEEFVRMMS, for which the abundance fitness was -0.254 ± 0.061.
Regarding RELRDAFREFDTNGDGRISVGELRAALKALLGERLSQREVDEILQDVDLLGDGLVDFEEFVRMMS, the abundance fitness was -0.232 ± 0.062.
Regarding RELRDAFREFDTNGDGRISVGELRTALKALLGERLSQREVDEILQDVDLNGDGLVDFEEFVRMMS, the abundance fitness is -0.035 ± 0.11.
Take RELRDAFREFDTNGDGRISVGELRLALKALLGERLSQREVDEILQDVDLNGDGLVDFEEFVRMMS: the abundance fitness was 0.139 ± 0.062.
With RELRDAFREFDTRGDGRISVGELRAALKALLGERLSQREVDEILQDVDLNGDGLVDFEEFVRMMS, the abundance fitness is -0.477 ± 0.076.
With RELRDAFREFDTNGDGRISVGELRAALKASLGERLSQREVDEILQDVDLNGDGLVDFEEFVRMMS, the abundance fitness is -0.216 ± 0.11.
The figure for RELRDAFREFDTNGDGRISVGELRAALKALLGERLSQREVDEILQDVDLNGDILVDFEEFVRMMS is -0.147 ± 0.12; for RELRDAFREFDTNGDGRISVGELRAALKALLGERLSQREVDRILQDVDLNGDGLVDFEEFVRMMS it is -0.08 ± 0.089; for RELRDAFREFDTNGDGRISVGELRAALKALLGERLSQREVEEILQDVDLNGDGLVDFEEFVRMMS it is -0.077 ± 0.083.
As for RELRDAFREFDTNGDGRISVGELRAALKALLGERLSQREVKEILQDVDLNGDGLVDFEEFVRMMS, the abundance fitness was -0.095 ± 0.062.
Take RELRDAFREFDTNGDGRISVGELRAALKALLGERLSQREVLEILQDVDLNGDGLVDFEEFVRMMS: the abundance fitness was -0.305 ± 0.092.
The figure for RELRDAFREFDTNGDGRISVGELRAALKALLGERLSQREVGEILQDVDLNGDGLVDFEEFVRMMS is -0.162 ± 0.087; for RELRDAFREFDTNGDGRISVGELRAALKALLGERLSQREVDEILQDVDLNGDGLVDFEEEVRMMS it is -0.672 ± 0.094.
As for RELRDAFREFDTNGDGRISVGELRAALKALLGERLSQREVDEILQDVDLNGDGLVDFEETVRMMS, the figure is -0.306 ± 0.096; as for RELRDAFREFDTNGDGRISVGELRAALKALLGERLSQREVDEILQDVDLNGDGLVDFEEQVRMMS, -0.899 ± 0.12; as for RELRDAFREFDTNGDGRISVGELRAALKALLGERLSQREVDEILQDVDLNGDGLVDFEELVRMMS, -0.228 ± 0.082.
The figure for RELRDAFREFDTNGDGRISVGELRAALKALLGERLSQREVDEILQDVDLNGDGLVDFEEFVREMS is -0.721 ± 0.46; for RELRDAFREFDTNGDGRISVGELRAALKALLGERLSQREVDEILQDVDLNGDGLVDFEEFVRDMS it is -0.323 ± 0.099; for RELRDAFREFDTNGDGRISVGELRAALKALLGERLSQREVDEILQDVDLNGDGLVDFEEFVRMIS it is -0.014 ± 0.28.
Regarding RELRDAFREFDTNGDGRISVGELRAALKALLGERLSQREVDEILQDVDLNGDGLVDFEEFVRMVS, the abundance fitness is 0.157 ± 0.095.
As to RELRDAFREFDTNGDGRISVGELRAALKALLGERLSQREVDEILQDNDLNGDGLVDFEEFVRMMS, the abundance fitness is -0.211 ± 0.06.
For RELRDAFREFDTNGDGRISVGELRAALKALLGERLSQREVDEILQDCDLNGDGLVDFEEFVRMMS, the abundance fitness was -0.241 ± 0.088.
Take RELRDAFREFDTNGDGRISVGELRAALKALLGPRLSQREVDEILQDVDLNGDGLVDFEEFVRMMS: the abundance fitness was -0.007 ± 0.08.
The figure for RELRDAFREFDTNGDGRISVGELRAALKALLGFRLSQREVDEILQDVDLNGDGLVDFEEFVRMMS is -0.109 ± 0.16; for RELRDAFREFDTNGDGRISVGELRAFLKALLGERLSQREVDEILQDVDLNGDGLVDFEEFVRMMS it is -0.041 ± 0.29; for RELRDAFREFDTNGDGRISVGELRAALKALLGERLSQREVDEILQDVDLNGDGLVDFCEFVRMMS it is -0.576 ± 0.17.
As to RELRDAFREFDTNGDGRISVGELRAALKALLGERLSQREVDEILQDVDLNGDGLVDFHEFVRMMS, the abundance fitness was -0.008 ± 0.17.
As to RELRDAFREFDTNGDGRISVGELRAALKALLGERLSQREVDEILQDVDLNGDGLVDFMEFVRMMS, the abundance fitness is -0.202 ± 0.2.
Consider RELRDAFREFDTNGDGRISVGELRAALKALLGERLSQREVDEILQDVDLNGDGLVDFPEFVRMMS, for which the abundance fitness was -0.025 ± 0.1.
Regarding RELRDAFREFDTNGDGRISVGELRAALKALLGERLSQREVDEILQDVDLNGDGLVDFYEFVRMMS, the abundance fitness was -0.43 ± 0.16.
Turning to RELRDAFREFDTNGDGRISVGELRAALKALLGERLSQREVDEILQDVDLNGDGLVDFEEFYRMMS, the abundance fitness was -0.013 ± 0.2.
As for RELRDAFREFDTNGDGRISVGELRAALKALLGERLSQREVDEILQDVDLNGDGLVDFEEFWRMMS, the figure is -0.114 ± 0.11; as for RELRDAFREFDTNGDGRISVGELRAALKALLGERLSQREVDEILQDVDLNGDGLVDFEEFMRMMS, -0.325 ± 0.22; as for RELRDAFREFDTNGDGRISVGELRAALKALLGERLSQEEVDEILQDVDLNGDGLVDFEEFVRMMS, -0.232 ± 0.17.
The figure for RELRDAYREFDTNGDGRISVGELRAALKALLGERLSQREVDEILQDVDLNGDGLVDFEEFVRMMS is -0.259 ± 0.12.
As for RELRDAFREFDTNGDGRISVGELRAALKALLVERLSQREVDEILQDVDLNGDGLVDFEEFVRMMS, the figure is -0.429 ± 0.19; as for RELRDAFREFDTNGDGRISVGELRAALKALLYERLSQREVDEILQDVDLNGDGLVDFEEFVRMMS, -0.269 ± 0.32.
For the variant RELRDAFREFDTNGDGRISVGELRAALKALLLERLSQREVDEILQDVDLNGDGLVDFEEFVRMMS, the abundance fitness is -0.64 ± 0.12.
As for RELRDAFREFDTNGDGRISVGELRAALKALLTERLSQREVDEILQDVDLNGDGLVDFEEFVRMMS, the abundance fitness was -0.526 ± 0.15.
As for RELRDAFREFDTNGDGWISVGELRAALKALLGERLSQREVDEILQDVDLNGDGLVDFEEFVRMMS, the figure is -0.159 ± 0.067; as for RELRDAFREFDTNGDGNISVGELRAALKALLGERLSQREVDEILQDVDLNGDGLVDFEEFVRMMS, -0.14 ± 0.47.
